Reference: patent US20170010270A1 (Chugai, published 2017)

Key:
Assay in all cases: ELISA on immobilised peptide
[1] = target: T1, GPC3 peptide, amino acid position 321-350 (SEQ ID NO: 17) (human)
T1 construct: synthetic 30-residue peptide of GPC3
T1 peptide: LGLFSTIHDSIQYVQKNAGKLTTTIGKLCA
Protocol: (§1) In order to identify more detailed epitopes for the antibodies, the amino acid sequence of GPC3 was divided into peptides of 30 residues containing 10-residue overlaps, and the corresponding peptides were synthesized (SEQ ID NOs: 1 to 29 in Table 2). Each peptide thus synthesized was dissolved at a concentration of 1 mg/mL in dimethyl sulfoxide and then diluted to 1 μg/mL with PBS. The diluted peptide solution was added at 70 μL/well to a 96-well plate and immobilized thereon at room temperature for 1 hour. After removal of unimmobilized peptides, 20% Blocking-one (Nacalai Tesque, Inc.) was added thereto as a blocking buffer solution at 200 μL/well, and the plate was blocked overnight. After removal of the blocking buffer solution, each well was washed with TBS-T three times, and each antibody diluted to 2 μg/mL with a blocking buffer was then added thereto at 70 μL/well. One hour later, the antibody was removed, and each well was washed three times by the addition of TBS-T at 200 μL/well. An HRP-bound anti-mouse antibody was added at 70 μL/well to each well and reacted therewith for 1 hour. After removal of the antibody, each well was washed with 200 μL/well of TBS-T three times, and a chromogenic reagent ABTS Peroxidase Substrate System (1 component, KPL, Kirkegaard & Perry Laboratories, Inc.) was then added thereto at 70 μL/well and reacted at room temperature for […] to develop color. The reaction was terminated by the addition of 1% SDS at 70 μL/well, and the absorbance at 405 nm was measured using a plate reader.

[2] = target: T2, GPC3 peptide, amino acid position 281-310 (SEQ ID NO: 15) (human)
T2 construct: synthetic 30-residue peptide of GPC3
T2 peptide: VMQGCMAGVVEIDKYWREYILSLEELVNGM
Protocol: as §1

[3] = target: T3, GPC3 peptide, amino acid position 221-250 (SEQ ID NO: 12) (human)
T3 construct: synthetic 30-residue peptide of GPC3
T3 peptide: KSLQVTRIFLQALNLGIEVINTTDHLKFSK
Protocol: as §1

[4] = target: T4, GPC3 peptide, amino acid position 41-70 (SEQ ID NO: 3) (human)
T4 construct: synthetic 30-residue peptide of GPC3
T4 peptide: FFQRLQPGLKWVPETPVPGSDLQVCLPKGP
Protocol: as §1

[5] = target: T5, GPC3 peptide, amino acid position 61-90 (SEQ ID NO: 4) (human)
T5 construct: synthetic 30-residue peptide of GPC3
T5 peptide: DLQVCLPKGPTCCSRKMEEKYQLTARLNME
Protocol: as §1

[6] = target: T6, GPC3 peptide, amino acid position 361-390 (SEQ ID NO: 19) (human)
T6 construct: synthetic 30-residue peptide of GPC3
T6 peptide: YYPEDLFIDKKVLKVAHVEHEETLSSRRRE
Protocol: as §1

[7] = target: T7, GPC3 peptide, amino acid position 201-230 (SEQ ID NO: 11) (human)
T7 construct: synthetic 30-residue peptide of GPC3
T7 peptide: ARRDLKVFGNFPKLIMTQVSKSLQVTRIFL
Protocol: as §1

[8] = target: T8, GPC3 peptide, amino acid position 341-370 (SEQ ID NO: 18) (human)
T8 construct: synthetic 30-residue peptide of GPC3
T8 peptide: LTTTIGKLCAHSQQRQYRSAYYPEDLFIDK
Protocol: as §1

[9] = target: T9, GPC3 peptide, amino acid position 181-210 (SEQ ID NO: 10) (human)
T9 construct: synthetic 30-residue peptide of GPC3
T9 peptide: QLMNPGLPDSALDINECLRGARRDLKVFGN
Protocol: as §1

[10] = target: T10, GPC3 peptide, amino acid position 141-170 (SEQ ID NO: 8) (human)
T10 construct: synthetic 30-residue peptide of GPC3
T10 peptide: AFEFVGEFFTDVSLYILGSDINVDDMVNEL
Protocol: as §1

[11] = target: T11, GPC3 peptide, amino acid position 501-530 (SEQ ID NO: 26) (human)
T11 construct: synthetic 30-residue peptide of GPC3
T11 peptide: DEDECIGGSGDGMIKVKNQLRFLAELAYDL
Protocol: as §1

[12] = target: T12, GPC3 peptide, amino acid position 541-570 (SEQ ID NO: 28) (human)
T12 construct: synthetic 30-residue peptide of GPC3
T12 peptide: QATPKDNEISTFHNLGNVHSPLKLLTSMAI
Protocol: as §1

[13] = target: T13, GPC3 peptide, amino acid position 551-580 (SEQ ID NO: 29) (human)
T13 construct: synthetic 30-residue peptide of GPC3
T13 peptide: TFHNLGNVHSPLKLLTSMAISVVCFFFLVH
Protocol: as §1

[14] = target: T14, GPC3 peptide, amino acid position 421-450 (SEQ ID NO: 22) (human)
T14 construct: synthetic 30-residue peptide of GPC3
T14 peptide: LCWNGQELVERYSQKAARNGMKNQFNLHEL
Protocol: as §1

[15] = target: T15, GPC3 peptide, amino acid position 481-510 (SEQ ID NO: 25) (human)
T15 construct: synthetic 30-residue peptide of GPC3
T15 peptide: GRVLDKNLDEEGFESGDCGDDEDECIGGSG
Protocol: as §1

[16] = target: T16, GPC3 peptide, amino acid position 241-270 (SEQ ID NO: 13) (human)
T16 construct: synthetic 30-residue peptide of GPC3
T16 peptide: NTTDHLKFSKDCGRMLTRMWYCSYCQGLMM
Protocol: as §1

[17] = target: T17, GPC3 peptide, amino acid position 521-550 (SEQ ID NO: 27) (human)
T17 construct: synthetic 30-residue peptide of GPC3
T17 peptide: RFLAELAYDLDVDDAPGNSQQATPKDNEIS
Protocol: as §1

[18] = target: T18, GPC3 peptide, amino acid position 301-330 (SEQ ID NO: 16) (human)
T18 construct: synthetic 30-residue peptide of GPC3
T18 peptide: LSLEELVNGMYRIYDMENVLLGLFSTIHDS
Protocol: as §1

[19] = target: T19, GPC3 peptide, amino acid position 121-150 (SEQ ID NO: 7) (human)
T19 construct: synthetic 30-residue peptide of GPC3
T19 peptide: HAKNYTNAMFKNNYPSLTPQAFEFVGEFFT
Protocol: as §1

[20] = target: T20, GPC3 peptide, amino acid position 441-470 (SEQ ID NO: 23) (human)
T20 construct: synthetic 30-residue peptide of GPC3
T20 peptide: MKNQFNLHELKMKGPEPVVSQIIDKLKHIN
Protocol: as §1

[21] = target: T21, GPC3 peptide, amino acid position 161-190 (SEQ ID NO: 9) (human)
T21 construct: synthetic 30-residue peptide of GPC3
T21 peptide: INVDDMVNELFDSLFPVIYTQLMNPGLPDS
Protocol: as §1

[22] = target: T22, GPC3 peptide, amino acid position 461-490 (SEQ ID NO: 24) (human)
T22 construct: synthetic 30-residue peptide of GPC3
T22 peptide: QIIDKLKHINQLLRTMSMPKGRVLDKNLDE
Protocol: as §1

[23] = target: T23, GPC3 peptide, amino acid position 381-410 (SEQ ID NO: 20) (human)
T23 construct: synthetic 30-residue peptide of GPC3
T23 peptide: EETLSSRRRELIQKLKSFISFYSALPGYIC
Protocol: as §1

Measured: binding result

B1: GT114 antibody (antibody, IgG1, V domains shown)
VH: DVQLQESGPGLVKPSQSLSLTCTVTGYSITSDSAWNWIRQFPGNKLEWMAYIMYSGITSYNPSLKSRISITRDTAKNQFFLQLNSVTTEDSATYYCSRGYWYFDVWGAGTTVTVSS
VL: QIVLTQSPAIMSASLGEEITLTCSASSSVSYMHWYQQKSGTSPKLLIYSTSILASGVPSRFSGSGSGTFYSLTISSVEAEDAADYYCLQWITYRTFGGGTKLEIKR
no binding (tested: 2 µg/mL): all assays above

B2: GT607 antibody (antibody, IgG1, V domains shown)
VH: EVQLVESGGDVVRPGGSLKLSCAASGFTFSSYGMSWVRQLPDKRLEWVASVGNGGSYRYYPENLKGRFTISRDNTKNTLYLQISGLKSEDTAIYYCARRGAFPYFDVWGAGTTVTVSS
VL: QIVLTQSPAIMSASPGEKVTLACSASSSVTYMHWYQQKSGTSPKRWIYETSKLASGVPPRFSGSGSGTSYSLTISTMEAEDAATYYCQQWSSNPLTFGAGTKLELKR
no binding (tested: 2 µg/mL): all assays above

B3: GT165 antibody (antibody, IgG1, V domains shown)
VH: QVQLQQSGAELVGPGASVKISCKAFGYTFTNHHINWVKQRPGQGLDWIGYINPYNDYTNYNQKFKGKATLTVDKSSSTAYMELSSLTSEDSAVYYCARSDPAWFAYWGQGTLVTVSA
VL: DIQMTQSPSSLSASLGGKVTITCKASQDINKNIAWYQHKPGKGPRLLIWYTYTLQPGIPSRFSGSGSGRDYSFSISNLEPEDIATYYCLQYDNLPFTFGTGTKLEIKR
no binding (tested: 2 µg/mL): all assays above
